{"source": "paper PMC9973270", "about": "“RdmA Is a Key Regulator in Autoinduction of DSF Quorum Quenching in Pseudomonas nitroreducens HS-18” (mBio, 2022)", "key": {"RdmA": {"target": "T1, RdmA (Pseudomonas nitroreducens, UniProt A0ABS0KS77)", "T1 construct": "gene I5I61_25840; full length, 206 residues; N-terminal His6 tag, vector pET32a, expressed in E. coli BL21(DE3); dimer proposed", "T1 sequence (A0ABS0KS77 1-206)": "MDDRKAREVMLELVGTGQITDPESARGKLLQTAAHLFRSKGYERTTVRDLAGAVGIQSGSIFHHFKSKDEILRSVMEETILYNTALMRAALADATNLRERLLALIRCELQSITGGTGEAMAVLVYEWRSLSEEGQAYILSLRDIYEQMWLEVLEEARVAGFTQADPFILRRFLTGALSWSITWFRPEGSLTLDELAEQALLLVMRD", "assay": "EMSA, inhibition of RdmA binding to biotin-labelled dmgA promoter", "settings": "RdmA 2 uM preincubated with DSF 30 min at 30 C before promoter fragment F1 (30 min, 22 C); solvent methanol"}, "[1]": {"tested_on": "T2, RdmA (Pseudomonas nitroreducens HS-18), ORF:ff03b8a4", "T2 sequence": "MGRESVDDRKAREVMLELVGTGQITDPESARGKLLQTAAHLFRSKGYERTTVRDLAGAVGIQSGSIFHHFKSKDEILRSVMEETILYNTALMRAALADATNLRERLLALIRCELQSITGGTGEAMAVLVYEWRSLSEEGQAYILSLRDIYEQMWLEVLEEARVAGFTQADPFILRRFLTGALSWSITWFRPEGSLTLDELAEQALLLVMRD", "assay": "EMSA", "settings": "LightShift chemiluminescent EMSA kit (buffer per manufacturer; pH and salt not stated), 10 uL, 2 nM biotin-DNA (20 fmol; Fig 5 legend says 10 nM), 0-4 uM RdmA …"}}, "data": [{"compound": "CC(C)CCCCCCC/C=C\\C(=O)O", "note": "[DSF, cis-11-methyl-2-dodecenoic acid]", "values": [{"measurement": "concentration giving complete inhibition of DNA binding", "setting": "RdmA", "value": 0.9, "unit": "mM"}]}, {"compound": "GCTTTCTCTCCCCATGGGTCCCATCTGGCCACCTTGCTCAGGGCAATTCATCGAATCGCCCCGCAAGTGCTTGTGTTGTCTGACGAAATGTAAGCCCGCGAGTGCCAACCA (double strand) [PdmgA F4]", "values": [{"measurement": "binding", "setting": "[1]", "value": "no binding"}]}, {"compound": "GCTTTCTCTCCCCATGGGTCCCATCTGGCCACCTTGCTCAGGGCAATTCATCGAATCGCCCCGCAAGTGCTTGTGTTGTCTGACGAAATGTAAGCCCGCGAGTGCCAACCAAGCAAGCGCTTGG (double strand) [PdmgA F3]", "values": [{"measurement": "binding", "setting": "[1]", "value": "binds more weakly"}]}, {"compound": "GCTTTCTCTCCCCATGGGTCCCATCTGGCCACCTTGCTCAGGGCAATTCATCGAATCGCCCCGCAAGTGCTTGTGTTGTCTGACGAAATGTAAGCCCGCGAGTGCCAACCAAGCAAGCGCTTGGCCATCCAATGGTTGGGGTAGTCATCGACTCGGGGCTTTTCAACCAAGCGCTTGCT (double strand) [PdmgA F2]", "values": [{"measurement": "binding", "setting": "[1]", "value": "binds more weakly"}]}]}
